T1: Recombinant human B7-2/CD86 Fc chimera (Cat. 141-B2-100, R&D Systems) (human, UniProt P42081 26-245)
T1 construct: Fc part of the bought chimera not given; not described
T1 sequence (looked up): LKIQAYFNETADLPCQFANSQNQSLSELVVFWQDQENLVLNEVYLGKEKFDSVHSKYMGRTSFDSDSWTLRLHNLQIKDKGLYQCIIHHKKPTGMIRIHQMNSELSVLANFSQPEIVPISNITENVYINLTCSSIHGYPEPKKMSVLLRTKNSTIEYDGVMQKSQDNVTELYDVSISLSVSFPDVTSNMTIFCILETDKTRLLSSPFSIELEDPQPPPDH

T2: Recombinant human B7-1/CD80 Fc chimera (Cat. 140-B1-100, R&D Systems) (human, UniProt P33681 35-242)
T2 construct: extracellular domain; also called B7-1 antigen; Fc part of the bought chimera not given; not described
T2 sequence (looked up): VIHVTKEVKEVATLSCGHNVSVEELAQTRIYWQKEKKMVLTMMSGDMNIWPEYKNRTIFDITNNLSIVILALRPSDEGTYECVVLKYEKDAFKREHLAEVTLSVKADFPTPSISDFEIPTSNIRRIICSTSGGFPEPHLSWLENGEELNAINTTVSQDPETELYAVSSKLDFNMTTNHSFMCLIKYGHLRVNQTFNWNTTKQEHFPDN

B1: Anti-NGF (antibody, V domains shown)
VH: QVQLQESGPGLVKPSETLSLTCTVSGFSLIGYDLNWIRQPPGKGLEWIGIIWGDGTTDYNSAVKSRVTISKDTSKNQFSLKLSSVTAADTAVYYCARGGYWYATSYYFDYWGQGTLVTVSS
VL: DIQMTQSPSSLSASVGDRVTITCRASQSISNNLNWYQQKPGKAPKLLIYYTSRFHSGVPSRFSGSGSGTDFTFTISSLQPEDIATYYCQQEHTLPYTFGQGTKLEIKR
B2: RAB007 (other)
VH: AMHVAQPAVVLASSRGIASFVCEYASPGKYTEVRVTVLRQADSQVTEVCAATYMMGNELTFLDDSICTGTSSGNQVNLTIQGLRAMDTGLYICKVELMYPPPYYEGIGNGTQIYVIDPEPCPDSDASTKGPEVQLVQSGAEVKKPGASVKVSCKASGYTFTKYWLGWVRQAPGQGLEWMGDIYPGYDYTHYNEKFKDRVTLTTDTSTSTAYMELRSLRSDDTAVYYCARSDGSSTYWGQGTLVTVSS
VL: AMHVAQPAVVLASSRGIASFVCEYASPGKYTEVRVTVLRQADSQVTEVCAATYMMGNELTFLDDSICTGTSSGNQVNLTIQGLRAMDTGLYICKVELMYPPPYYEGIGNGTQIYVIDPEPCPDSDTVAAPDVLMTQTPLSLPVTPGEPASISCTSSQNIVHSNGNTYLEWYLQKPGQSPQLLIYKVSNRFSGVPDRFSGSGSGTDFTLKISRVEAEDVGVYYCFQVSHVPYTFGGGTKVEIKR
notes: rDVD-Ig with LEA29Y on both chains; also called RAB007H; RAB007L
B3: RAB008 (other)
VH: B2 VH
VL: DVLMTQTPLSLPVTPGEPASISCTSSQNIVHSNGNTYLEWYLQKPGQSPQLLIYKVSNRFSGVPDRFSGSGSGTDFTLKISRVEAEDVGVYYCFQVSHVPYTFGGGTKVEIKR
notes: rDVD-Ig with LEA29Y on the heavy chain only; also called RAB008H; RAB008L
B4: RAB009 (other)
VH: EVQLVQSGAEVKKPGASVKVSCKASGYTFTKYWLGWVRQAPGQGLEWMGDIYPGYDYTHYNEKFKDRVTLTTDTSTSTAYMELRSLRSDDTAVYYCARSDGSSTYWGQGTLVTVSS
VL: B2 VL
notes: rDVD-Ig with LEA29Y on the light chain only; also called RAB009H; RAB009L
B5: RAB011 (other)
VH: AMHVAQPAVVLASSRGIASFVCEYASPGKYTEVRVTVLRQADSQVTEVCAATYMMGNELTFLDDSICTGTSSGNQVNLTIQGLRAMDTGLYICKVELMYPPPYYEGIGNGTQIYVIDPEPCPDSDASTKGPQVQLQESGPGLVKPSETLSLTCTVSGFSLIGYDLNWIRQPPGKGLEWIGIIWGDGTTDYNSAVKSRVTISKDTSKNQFSLKLSSVTAADTAVYYCARGGYWYATSYYFDYWGQGTLVTVSS
VL: B1 VL
notes: rDVD-Ig with LEA29Y on the heavy chain only and anti-NGF variable domains; also called RAB011H; RAB011L
B6: RAB012 (other)
VH: B1 VH
VL: AMHVAQPAVVLASSRGIASFVCEYASPGKYTEVRVTVLRQADSQVTEVCAATYMMGNELTFLDDSICTGTSSGNQVNLTIQGLRAMDTGLYICKVELMYPPPYYEGIGNGTQIYVIDPEPCPDSDTVAAPDIQMTQSPSSLSASVGDRVTITCRASQSISNNLNWYQQKPGKAPKLLIYYTSRFHSGVPSRFSGSGSGTDFTFTISSLQPEDIATYYCQQEHTLPYTFGQGTKLEIKR
notes: rDVD-Ig with LEA29Y on the light chain only and anti-NGF variable domains; also called RAB012H; RAB012L

Columns and labels:
NGF = test: cell-based or functional assay
[1] = target: T1, Recombinant human B7-2/CD86 Fc chimera …; test: competitive ELISA; coated CD28 Fc, biotinylated B7-2/CD86 Fc, construct titrated
Method: (§1) ELISA plates (Nunc, MaxiSorp, Rochester, N.Y.) were incubated overnight at 4° C. with Recombinant Human CD28 Fc Chimera (Cat. #342-CD-200). Plates were washed three times in washing buffer (PBS containing 0.05% Tween 20), and blocked for 1 hour at 25° C. in blocking buffer (PBS containing 1% BSA). Wells were washed three times, and serial dilutions of each antibody or DVD-Ig in PBS containing 0.1% BSA were added to the wells and incubated at 25° C. for 1 hour. The wells were washed three times, and biotinylated antigen (2 nM) was added to the plates and incubated for 1 hour at 25° C. The wells were washed three times and incubated for 1 hour at 25° C. with streptavidin-HRP (KPL #474-3000, Gaithersburg, Md.). The wells were washed three times, and 100 μl of ULTRA-TMB ELISA (Pierce, Rockford, Ill.) was added per well. Following color development the reaction was stopped with 1N HCL and absorbance at 450 nm was measured. Recombinant human B7-1/CD80 Fc chimera (Cat. 140-B1-100, R&D Systems, Minneapolis, Minn.) was used.
Recombinant human B7-2/CD86 Fc chimera (Cat. 141-B2-100, R&D Systems, Minneapolis, Minn.) was used.

[2] = target: T2, Recombinant human B7-1/CD80 Fc chimera …; test: competitive ELISA; coated CD28 Fc, biotinylated B7-1/CD80 Fc (2 nM), construct titrated
Method: as §1

Row | Binder | C-terminal Bioassay Mean (IC50, nM): Cell Impedance assay (NGF) [nM] | C-terminal Bioassay Mean (IC50, nM): pERK assay (NGF) [nM] | EC50 [1] [nM] | EC50 [2] [nM]
1 | B1 | 7.8 | 0.6 | – | –
2 | B2 | – | – | 2.1 | 6.6
3 | B3 | – | – | 1 | 1.5
4 | B4 | – | – | 0.3 | 2.7
5 | B5 | – | – | 1.3 | 1.6
6 | B6 | – | – | 4.2 | 2.5

From US20140219913A1 (AbbVie / Abbott, published 2014)
